Target: T1, LexA (Bacillus subtilis 3610) (UniProt P31080)
T1 sequence: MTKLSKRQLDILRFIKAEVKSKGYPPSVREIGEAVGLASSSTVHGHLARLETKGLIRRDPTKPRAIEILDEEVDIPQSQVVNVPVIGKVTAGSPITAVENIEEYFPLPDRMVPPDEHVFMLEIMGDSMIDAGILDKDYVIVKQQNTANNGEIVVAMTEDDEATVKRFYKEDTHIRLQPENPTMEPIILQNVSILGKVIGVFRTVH
Experiment: EMSA
Conditions: EMSA: 4 nM 32P probe, LexA 1-500 nM, binding buffer as printed (likely 5x stock): 100 mM HEPES pH 7.5, 100 mM Tris-HCl, 50% glycerol, 500 mM NaCl, 10 mM EDTA …

Row | Sequence | binding signal (fold lower affinity) | binding
1 | AGGAGGGATCCTCTATATTGCTATTTCATGTTGGTGGATACAAGTAAAACCAAAATTTCCATATCCATCAGACTTAATGATTTTATCTAGAGAAATAGAAACGTAAACGAAAAAAATATTATTTTTTTAACTTTTTGTTTGAGCCTTTTTACAGATTGGAAGTCTTCAGAATAGGTCTTTTTTGGTAGTACTTACAATAATTATTATATTACATAAGTACTAGATCGTACACGAATTCCTCCT (double strand) [PsigNDN] | 500 | –
2 | CCTGACGATCACTCATTCTATTTTTTCCTCCTTTATGTTACCACTACATATACTATACCCTGTTTGAAGGGATTTGCCAAGAAAAAAGCGAACGCATATTCGGATTTTTTCTTGGCGTGATTCCTATCAAAATATCATAATGTATCAGAGAAATCATGTTTTCTTAGGAGGATAATGTGCTG (double strand) [PrecA] | – | binds

From PMC6751061
